Test results taken from PMC3349753.

Target: Myc-tagged full-length FGD4 (FYVE, RhoGEF and PH domain-containing 4) (human) (UniProt Q96M96)
UniProt Q96M96, sequence (Q96M96 whole entry, the tested form may be a part): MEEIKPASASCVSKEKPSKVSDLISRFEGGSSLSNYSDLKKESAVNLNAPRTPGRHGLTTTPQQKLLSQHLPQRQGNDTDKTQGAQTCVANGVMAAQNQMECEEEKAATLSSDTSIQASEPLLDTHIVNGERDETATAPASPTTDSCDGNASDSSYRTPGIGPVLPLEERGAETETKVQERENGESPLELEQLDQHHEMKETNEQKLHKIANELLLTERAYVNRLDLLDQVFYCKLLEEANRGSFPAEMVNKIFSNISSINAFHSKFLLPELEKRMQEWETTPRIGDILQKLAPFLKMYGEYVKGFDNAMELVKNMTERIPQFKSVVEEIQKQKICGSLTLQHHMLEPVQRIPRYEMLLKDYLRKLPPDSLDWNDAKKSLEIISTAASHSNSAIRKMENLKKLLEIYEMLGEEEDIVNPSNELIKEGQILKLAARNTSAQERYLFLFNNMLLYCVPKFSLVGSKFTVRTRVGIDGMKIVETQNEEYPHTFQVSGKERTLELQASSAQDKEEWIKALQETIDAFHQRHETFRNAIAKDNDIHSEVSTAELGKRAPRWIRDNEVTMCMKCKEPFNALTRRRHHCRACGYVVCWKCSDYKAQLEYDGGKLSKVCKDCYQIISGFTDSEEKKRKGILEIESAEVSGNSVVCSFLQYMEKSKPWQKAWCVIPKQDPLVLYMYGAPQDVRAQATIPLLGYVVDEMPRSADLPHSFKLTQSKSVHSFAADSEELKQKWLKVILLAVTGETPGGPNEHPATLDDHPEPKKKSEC

**Q.** “Flag-CD40CT chimera: the entire transmembrane region of LMP1 (aa 1–177) replaced with that of CD40 (aa 1–214) (from UniProt P25942 21-214; P03230 178-386)” was tested. Which level of active Cdc42 (GST-CBD pull-down from NPC-TW01 lysates) on co-expression of FGD4 with CD40CT, compared with expression of FGD4 alone: did not promote Cdc42 activation did it give?
**A.** 1.1 fold

**Q.** Which level of active Cdc42 (GST-CBD pull-down from NPC-TW01 lysates) on co-expression of Myc-FGD4 with LMP1, compared with expression of FGD4 alone does the source give for “Flag-tagged full-length latent membrane protein 1 (LMP1) (from UniProt P03230 1-386) (natural protein)” here?
**A.** 1.8 fold
